Consider 3 molecules from patent US20190300610A1 (published 2019).

One assay has as its target T1, His-tagged human VISTA (human, UniProt Q9H7M9 33-194).
T1 construct: also called human VISTA-His recombinant protein; VISTA/human His-tagged fusion protein (Sinobiological Inc); not shown: His tag
The assay can be described thus: BLI (Octet QK384), His-tagged VISTA captured on anti-Penta-HIS tips, antibody as analyte, global one site fit.

The target of assay [1] is T2, His-tagged cynomolgus macaque VISTA (cynomolgus macaque, UniProt A0A7N9IB00 33-194).
T2 construct: also called cynomolgus monkey VISTA; not shown: His tag
Described as above.

Another assay concerns the target T3, Histidine-tagged mFcγRIV (mouse, UniProt A0A0B4J1G0 21-203).
T3 construct: also called mouse FcγRIV; mFcγRIV (50036-M08H, Sino Biological)
T3 sequence: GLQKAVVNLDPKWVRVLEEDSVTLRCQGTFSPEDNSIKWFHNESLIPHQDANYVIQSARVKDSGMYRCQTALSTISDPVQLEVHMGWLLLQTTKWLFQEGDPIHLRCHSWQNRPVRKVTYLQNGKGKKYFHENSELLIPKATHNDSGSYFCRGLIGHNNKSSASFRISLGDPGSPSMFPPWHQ
The assay can be described thus: BLI (Octet QK384), His-tagged receptor on anti-Penta-HIS biosensor, antibody as analyte, pH 7.2.

The target in assay [2] is T4, Histidine-tagged mFcγRIII (mouse, UniProt P08508 31-215).
T4 construct: also called mouse FcγRIII; mFcγRIII (50326-M08H, Sino Biological); not shown: histidine tag
T4 sequence (looked up): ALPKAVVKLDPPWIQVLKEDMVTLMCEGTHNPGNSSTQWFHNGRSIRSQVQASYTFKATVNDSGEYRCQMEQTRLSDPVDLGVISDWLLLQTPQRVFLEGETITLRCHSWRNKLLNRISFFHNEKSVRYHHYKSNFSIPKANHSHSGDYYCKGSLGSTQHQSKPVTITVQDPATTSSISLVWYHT
The assay is described as above.

Assay [3] deals with T5, Histidine-tagged mFcγRIIb (mouse, UniProt P08101 30-207).
T5 construct: also called mouse FcγRIIb; mFcγRIIb (50030-M08H, Sino Biological); not shown: histidine tag
T5 sequence (looked up): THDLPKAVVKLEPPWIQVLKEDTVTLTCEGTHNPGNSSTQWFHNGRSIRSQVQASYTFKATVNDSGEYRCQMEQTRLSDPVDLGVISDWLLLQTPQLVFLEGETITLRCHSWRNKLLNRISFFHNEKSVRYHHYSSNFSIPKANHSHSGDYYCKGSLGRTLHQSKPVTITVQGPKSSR
The description is as above.

For assay [4], the target named is T6, Human VISTA expressed on cells (human, UniProt Q9H7M9 33-311).
T6 construct: also called HEK293 VISTA O/E; HEK293T cells transfected with vector encoding human VISTA
The assay can be described thus: flow cytometry, HEK293T cells transfected with human VISTA vs wildtype, 20 µg/ml antibody (FIGS. 1C, 2, 24).
Method: The cells were washed thrice with FACS buffer (PBS with 5 mM EDTA and 0.5% BSA) and resuspended in FITC-conjugated anti-FC antibody (Invitrogen, USA) for 40 min at 2-8° C. Cells were washed again and resuspended in 200 μL of FACS flow buffer (PBS with 5 mM EDTA) for flow cytometric analysis using MACSQuant 10 (Miltenyi Biotec, Germany). After acquisition, all raw data were analyzed using Flowlogic software. Cells were gated using forward and side scatter profile and Median of Fluorescence Intensity (MFI) value was determined for native and overexpressing cell populations.

Some results are limits rather than exact numbers.

Method for His-tagged human VISTA: All measurements were performed at 25° C. with agitation at 1000 rpm. Kinetic measurements for antigen binding were performed by loading anti-VISTA antibody at different concentrations (indicated in the Figures) for 120 s, followed by a 120 s dissociation time by transferring the biosensors into assay buffer containing wells. Sensograms were referenced for buffer effects and then fitted using the Octet QK384 user software (Pall ForteBio, USA). Kinetic responses were subjected to a global fitting using a one site binding model to obtain values for association (kon), dissociation (koff) rate constants and the equilibrium dissociation constant (KD). Only curves that could be reliably fitted with the software (R²>0.90) were included in the analysis.

B1: anti-VISTA clone 4M2-C12 IgG1 (antibody)
heavy: not shown
light: DIVITQTPAILSTSPGEKVTMTCRASSSVGYIHWYQQKPGSSPKPWIYATSNLASGVPARFSGSGSGTSNSLTITRVEAEDAATYYCQQWSSYPPITFGGGTKLEVKRTVAAPSVFIFPPSDEQLKSGTASVVCLLNNFYPREAKVQWKVDNALQSGNSQESVTEQDSKDSTYSLSSTLTLSKADYEKHKVYACEVTHQGLSSPVTKSFNRGEC
notes: Human-mouse chimeric IgG1/kappa; also called V4; clone V4
Consider B1, for which the Kd (in the assay with His-tagged human VISTA; in assay [1]) was less than 1000 nM in each case.

B2: 4M2-C12 mIgG2a (antibody)
heavy: EVKLVESGPGLVKPSQSLSLTCTVTGYSITSDYAWNWIRQFPGNKLEWMGYITYSGNISYNPSLRSRISITRDTSKNQFFLQLNSVTPEDTATYSCARSLYYPWYFDVWGAGTTVTVSSAKTTAPSVYPLAPVCGDTTGSSVTLGCLVKGYFPEPVTLTWNSGSLSSGVHTFPAVLQSDLYTLSSSVTVTSSTWPSQSITCNVAHPASSTKVDKKIEPRGPTIKPCPPCKCPAPNLLGGPSVFIFPPKIKDVLMISLSPIVTCVVVDVSEDDPDVQISWFVNNVEVHTAQTQTHREDYNSTLRVVSALPIQHQDWMSGKEFKCKVNNKDLPAPIERTISKPKGSVRAPQVYVLPPPEEEMTKKQVTLTCMVTDFMPEDIYVEWTNNGKTELNYKNTEPVLDSDGSYFMYSKLRVEKKNWVERNSYSCSVVHEGLHNHHTTKSFSRTPGK
light: DIVITQTPAILSTSPGEKVTMTCRASSSVGYIHWYQQKPGSSPKPWIYATSNLASGVPARFSGSGSGTSNSLTITRVEAEDAATYYCQQWSSYPPITFGGGTKLEVKRADAAPTVSIFPPSSEQLTSGGASVVCFLNNFYPKDINVKWKIDGSERQNGVLNSWTDQDSKDSTYSMSSTLTLTKDEYERHNSYTCEATHKTSTSPIVKSFNRNEC
notes: Mouse IgG2a format, produced in CHO cells; also called 4M2-C12 IgG2a
In the case of B2, the binding result (in the assay with Histidine-tagged mFcγRIV; in assay [2]; in assay [3]) was “binds” each time.

B3: anti-VISTA clone 9M2-C12 IgG1 (antibody, V domains shown)
VH: QVQLQQSGAELVKPGASVRLSCKASGYTFTSYWMHWVRQRPGLGLEWIGEIDPSDSYTNCNQRFKGKATLTVDKSSSTAYTQLSSLTSEDSAVYYCARWAYGPYAMDYWGQGTSVTVSS
VL: DIVMTQTPLSLPVSLGDQASISCRSSQSLVHSNGNTYLHWYLQKPGQSPKLLIYKVSNRFSGVPDRFSGSGSGTDFTLKISRVEAEDLGVYFCSQSTHVPWTFGGGTKLEIKR
B3: the binding result in assay [4] is reported as “binds”.
